Measured values taken from paper PMC3017539, “Crystal Structure of Escherichia coli CusC, the Outer Membrane Component of a Heavy Metal Efflux Pump” (PLoS ONE, 2011).

Molecular target: the molecule itself
Assay: SEC; gel filtration (Superdex-200) in 10 mM Na-acetate/50 mM NaCl/10% glycerol/0.05% DDM pH 5; oligomer judged from the elution position

B1: CusC, the outer membrane component of the Cus heavy metal efflux pump (natural protein, E. coli, UniProt P77211 18-457, looked up)
chain: CSLAPDYQRPAMPVPQQFSLSQNGLVNAADNYQNAGWRTFFVDNQVKTLISEALVNNRDLRMATLKVQEARAQYRLTDADRYPQLNGEGSGSWSGNLKGNTATTREFSTGLNASFDLDFFGRLKNMSEAERQNYLATEEAQRAVHILLVSNVAQSYFNQQLAYAQLQIAEETLRNYQQSYAFVEKQLLTGSSNVLALEQARGVIESTRSDIAKRQGELAQANNALQLLLGSYGKLPQAQTVNSDSLQSVKLPAGLSSQILLQRPDIMEAEHALMAANANIGAARAAFFPSISLTSGISTASSDLSSLFNASSGMWNFIPKIEIPIFNAGRNQANLDIAEIRQQQSVVNYEQKIQNAFKEVADALALRQSLNDQISAQQRYLASLQITLQRARALYQHGAVSYLEVLDAERSLFATRQTLLDLNYARQVNEISLYTALGGG
modifications: three partial acyl chains attached to Cys1 (most likely triacylated at the N-terminal cysteine with N-acyl and S-diacylglycerol functions)
notes: CusC of Escherichia coli, gene for the full-length protein amplified from DH5alpha cells; residues 21-31 disordered in the crystal. numbers count on: the mature protein; Hexa-histidine tag introduced after the C-terminal residue; no cleavage is described; also called outer membrane factor (OMF) protein CusC; source: E. coli C43 (DE3), over-expressed, purified from membranes (nickel column, …)
  stoichiometry N: 3
